Test results: PMC3410417 (The Journal of Cell Biology, 2012)

Target: Myc-mGlu5a-Rluc8 (UniProt P31424-2 21-1171)
Assay: FRET or BRET

B1: YFP-Homer3 (natural protein, UniProt Q9Z2X5 1-358, looked up)
chain: MSTAREQPIFSTRAHVFQIDPATKRNWIPAGKHALTVSYFYDATRNVYRIISIGGAKAIINSTVTPNMTFTKTSQKFGQWADSRANTVYGLGFGSEQQLTQFAEKFQEVKEAARLAREKSQDGGELTSTALAMASHQVPPSPLVSTNGPEEKLFRSQSADAPGPTERERLKKMLSEGSVGEVQWEAEFFALQDSNQRLAGALREANAAATQWRQQLEVQRAEAEHLRQRVAELEAQVAAEPVRAGEKEATSQSVEQLEARVQTKDQEIQTLKNQSTGPREAPDTAEREETQQQVQDLETRNAELEQQLRAMESNLEEARAERERARAEVGRAAQLLDVRLFELSELREGLARLAEAAP
BRET ratio in the spine before TAT-Homer1a (% of mean BRET in the shaft): 364%
